Results from patent US7396905B1, “Calcipressins: endogenous inhibitors of calcineurin, uses and reagents related thereto” (priority 1999, dated 2008).

Assays:
[1] = tested on: calcineurin-dependent nuclear import of NF-AT4; assay: Calcineurin-dependent NF-AT4 nuclear import assay in BHK cells; assay type: cell-based, baby hamster; conditions: co-expressed with GFP-NF-AT4 in BHK cells; calcium ionophore
Procedure: This assay monitors the subcellular location of GFP-tagged NF-AT4, a transcription factor that resides in the cytoplasm of unstimulated BHK cells. Following stimulation of BHK cells with ionomycin, a calcium ionophore, GFP-NF-AT4 translocates to the nucleus with a t1/2 of five minutes. This translocation event is accompanied by a dephosphorylation of NF-AT4 in a process dependent on calcineurin.
Baby hamster kidney cells were grown on sterile glass coverslips in DMEM media with 10% fetal calf serum and transfected using calcium phosphate methods (Heald et al., 1993). […] NF-AT4 expression was based on the vector pcDNA3-GFP-NF-AT4 (Shibasaki et al., 1996). Transfected cells were grown for 18 hours prior to drug treatments. Cells were fixed 30 minutes after ionomycin (0.5 uM) treatment or washout using 3% formaldehyde in PBS for 10 minutes at room temperature.

[2] = tested on: calcineurin A and B subunits produced by in vitro translation; assay: In vitro binding of GST fusion proteins to 35S-labelled calcineurin subunits; conditions: GST fusion proteins purified from E. coli
Procedure: 5A. […] Associated calcineurin subunits were detected and quantified by SDS-polyacrylamide gel electrophoresis and autoradiography. The same deletion mutants were co-expressed with GFP-NF-AT4 in BHK cells and assayed for their ability to block calcium ionophore-stimulated NF-AT4 nuclear import.
Purified GsT-Csp1 and -Csp2 fusion proteins were mixed with calcineurin in vitro translation lysates in buffer A (50 mM Tris-HCl, pH7.5, 140 mM NaCl, 1 mM CaCl2, and 0.4% Triton X-100), incubated for 60 minutes at 4 degrees, and absorbed with glutathione-agarose beads. The agarose beads were washed three times with buffer A, resuspended in 2×SDS sample buffer, and fractionated on SDS-polyacrylamide gels. Dried gels were analyzed by the phosphoImager to detect and quantify GsT-Csp1 or -Csp2-associated calcineurin subunits.

B1: Csp1 1-100: Csp1 lacking the C-terminal half (protein)
chain: MEEVDLQDLPSATIACHLDPRVFVDGLCRAKFESLFRTYDKDTTFQYFKSFKRVRINFSNPLSAADARLRLHKTEFLGKEMKLYFAQTLHIGSSHLAPPN
modifications: left off: a dimerising Fc or GST
notes: Csp1 lacking the C-terminal half
inhibition of NF-AT4 nuclear import stimulated by calcium ionophore [1]: fails to block calcium-activation NF-AT4 nuclear import
interaction with calcineurin in vitro [2]: no obvious interaction with calcineurin in vitro
